According to the supplement of paper PMC6757056:
± gives the standard deviation of the averaged measurements.

B1: library; a variant is named by its letters at N, in order (parent)
chain: GCUGUCACCGGUGUAUUACCCUAGUGGUCGACCGGUCUGAUGAGUCUNNNNNNAGACGAAACAGC

Key:
[1] = variants of: B1; assay: FACS-Seq fitted mean relative fluorescence mCherry/BFP without ligand (log10 relative fluorescence); ligand: hypoxanthine (xanthine aptamer); higher = higher reporter protein expression; details: HEK293T, ligand present: no
Summary of the method: (§1)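 Fluorescence is reported as a normalized fitted mean of sorted-bin read counts. Lentivirally transduced HEK293T libraries (mCherry ribozyme-switch reporter, EF1α-BFP marker) were enriched, treated with or without ligand for 48 h, and sorted into 6 mCherry/BFP bins for MiSeq sequencing of PCR-amplified genomic DNA. The normal fit was on log10(mCherry/BFP), scaled to five spiked-in control ribozymes.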

[2] = variants of: B1; assay: normalized RNA/DNA level with ligand (relative to sTRSVctl = 100) (log10 (% of sTRSVctl)); ligand: hypoxanthine (xanthine aptamer); higher = less ribozyme self-cleavage, higher mRNA level; details: ligand concentration (+) RNA-Seq: 5 mM, HEK293T, reporter: mCherry (pCS4076), ligand present: yes
Summary of the method: (§2)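 HEK293T cells received ligand, where used, 1 h before being transfected with 4 µg per 6-well well of library plasmids encoding reporter-linked ribozyme switches. After 72 h, RNA was extracted with EDTA and sequenced. RNA level was derived from RNA reads per DNA read, normalized to a spiked-in non-cleaving sequence or the top sequences, then scaled and log-transformed. Values were ×100 then log10, the top set was 25 sequences, and the minimum was 100 DNA reads.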

[3] = variants of: B1; assay: normalized RNA/DNA level without ligand (relative to sTRSVctl = 100) (log10 (% of sTRSVctl)); ligand: hypoxanthine (xanthine aptamer); higher = less ribozyme self-cleavage, higher mRNA level; details: HEK293T, reporter: mCherry (pCS4076), ligand present: no
Summary of the method: as §2

[4] = variants of: B1; assay: FACS-Seq fitted mean relative fluorescence mCherry/BFP with ligand (log10 relative fluorescence); ligand: hypoxanthine (xanthine aptamer); ligand concentration (+) FACS-Seq: 5 mM; higher = higher reporter protein expression; details: HEK293T, ligand present: yes
Summary of the method: as §1

Row | Variant | FACS-Seq fitted mean (log10) [1] | normalized RNA/DNA level with ligand (log10) [2] | normalized RNA/DNA level without ligand (log10) [3] | FACS-Seq fitted mean (log10) [4]
1 | AGCAGC | 0.426 ± 0.013 | 1.99 ± 0.058 | 1.74 ± 0.049 | 0.54 ± 0.14
2 | UGCAGG | 0.297 ± 0.033 | 1.8726 ± 0.0012 | 1.39 ± 0.073 | 0.49 ± 0.056
3 | AGCAGG | 0.0745 ± 0.0069 | 1.83 ± 0.055 | 1.396 ± 0.0059 | 0.533 ± 0.079
4 | GGCAGU | 0.196 ± 0.14 | 1.98 ± 0.04 | 1.85 ± 0.046 | 0.205 ± 0.0051
5 | UGCAGU | -0.0358 ± 0.0051 | 1.906 ± 0.016 | 1.434 ± 0.0054 | 0.345 ± 0.15
6 | AGCAUA | 0.318 ± 0.075 | 1.9 ± 0.044 | 1.82 ± 0.02 | 0.286 ± 0.19
7 | GGCAUG | 0.213 ± 0.11 | 1.88 ± 0.058 | 1.45 ± 0.042 | 0.621 ± 0.098
8 | AGCAUG | 0.201 ± 0.012 | 1.87 ± 0.079 | 1.4892 ± 0.001 | -0.275 ± 0.19
9 | AGCAUU | -0.328 ± 0.0053 | 1.92 ± 0.065 | 1.86 ± 0.057 | -0.19 ± 0.0097
10 | AGCCAA | 0.57 ± 0.1 | 1.888 ± 0.017 | 1.8 ± 0.028 | 0.566 ± 0.067
11 | UGCCAC | 0.327 ± 0.019 | 1.94 ± 0.031 | 1.89 ± 0.02 | 0.42 ± 0.01
12 | CGCCAG | 0.462 ± 0.027 | 1.99 ± 0.051 | 1.84 ± 0.12 | 0.537 ± 0.0082
13 | UGCCAG | 0.421 ± 0.0089 | 1.9 ± 0.034 | 1.727 ± 0.0076 | 0.288 ± 0.093
14 | AGCCAG | 0.512 ± 0.025 | 1.89 ± 0.024 | 1.591 ± 0.007 | 0.71 ± 0.041
15 | AGCCAU | -0.282 ± 0.012 | 1.92 ± 0.052 | 1.78 ± 0.027 | 0.15 ± 0.033
16 | UGCCCA | 0.234 ± 0.013 | 1.944 ± 0.002 | 1.92 ± 0.043 | -0.0574 ± 0.058
17 | AGCCCA | 0.0335 ± 0.1 | 1.923 ± 0.018 | 1.88 ± 0.025 | -0.145 ± 0.064
18 | AGCCCG | -0.024 ± 0.027 | 1.956 ± 0.0061 | 1.61 ± 0.087 | 0.388 ± 0.038
19 | AGCCGA | 0.399 ± 0.018 | 1.925 ± 0.0069 | 1.68 ± 0.027 | 0.547 ± 0.036
20 | UGCCGG | -0.14 ± 0.0069 | 1.938 ± 0.0072 | 1.71 ± 0.068 | -0.119 ± 0.14
21 | AGCCGG | -0.0509 ± 0.035 | 1.91 ± 0.012 | 1.67 ± 0.02 | 0.305 ± 0.055
22 | GGCCGU | 0.465 ± 0.071 | 1.95 ± 0.034 | 1.945 ± 0.014 | 0.502 ± 0.0071
23 | UGCCUA | 0.664 ± 0.022 | 1.94 ± 0.039 | 1.929 ± 0.0053 | 0.57 ± 0.049
24 | UGCCUC | 0.735 ± 0.008 | 2 ± 0.064 | 2.01 ± 0.023 | 0.659 ± 0.051

Row | Variant | FACS-Seq fitted mean (log10) [1] | normalized RNA/DNA level with ligand (log10) [2] | normalized RNA/DNA level without ligand (log10) [3] | FACS-Seq fitted mean (log10) [4]
25 | GGCCUG | 0.145 ± 0.02 | 1.99 ± 0.062 | 1.809 ± 0.013 | 0.239 ± 0.046
26 | UGCCUG | 0.608 ± 0.0066 | 1.91 ± 0.1 | 1.73 ± 0.042 | 0.712 ± 0.07
27 | AGCCUG | 0.523 ± 0.04 | 1.92 ± 0.059 | 1.5724 ± 0.00079 | 0.67 ± 0.037
28 | AGCCUU | 0.466 ± 0.071 | 1.97 ± 0.022 | 1.933 ± 0.0025 | 0.317 ± 0.091
29 | AGCGAA | 0.534 ± 0.068 | 1.924 ± 0.017 | 1.6852 ± 0.00025 | 0.62 ± 0.014
30 | AGCGAC | -0.228 ± 0.049 | 1.93 ± 0.043 | 1.787 ± 0.00037 | 0.298 ± 0.021
31 | AGCGAG | 0.352 ± 0.055 | 1.8 ± 0.031 | 1.36 ± 0.062 | 0.443 ± 0.043
32 | GGCGAU | 0.679 ± 0.071 | 1.97 ± 0.062 | 1.9 ± 0.063 | 0.587 ± 0.0063
33 | GGCGCA | 0.59 ± 0.026 | 1.977 ± 0.0052 | 1.893 ± 0.0039 | 0.6023 ± 0.0039
34 | CGCGCC | 0.276 ± 0.055 | 1.93 ± 0.021 | 1.96 ± 0.044 | 0.445 ± 0.033
35 | UGCGCG | 0.142 ± 0.0059 | 1.94 ± 0.032 | 1.75 ± 0.035 | 0.383 ± 0.012
36 | AGCGCG | 0.0574 ± 0.015 | 1.91 ± 0.083 | 1.43 ± 0.051 | 0.359 ± 0.012
37 | AGCGCU | 0.228 ± 0.049 | 1.93 ± 0.032 | 1.85 ± 0.028 | 0.22 ± 0.0027
38 | GGCGGA | 0.416 ± 0.079 | 1.98 ± 0.043 | 1.837 ± 0.013 | 0.534 ± 0.03
39 | UGCGGA | 0.465 ± 0.014 | 1.87 ± 0.056 | 1.518 ± 0.0062 | 0.733 ± 0.033
40 | AGCGGA | 0.427 ± 0.044 | 1.945 ± 0.0055 | 1.71 ± 0.036 | 0.456 ± 0.021
41 | UGCGGC | 0.67 ± 0.028 | 1.98 ± 0.035 | 1.9 ± 0.071 | 0.708 ± 0.037
42 | CGCGGG | 0.374 ± 0.021 | 1.84 ± 0.026 | 1.36 ± 0.036 | 0.72 ± 0.051
43 | AGCGGG | 0.579 ± 0.16 | 1.9573 ± 0.00092 | 1.754 ± 0.0053 | 0.732 ± 0.094
44 | CGCGUA | 0.477 ± 0.0013 | 1.95 ± 0.041 | 1.81 ± 0.067 | 0.659 ± 0.013
45 | UGCGUA | 0.287 ± 0.015 | 1.92 ± 0.05 | 1.86 ± 0.032 | 0.413 ± 0.031
46 | AGCGUC | 0.8 ± 0.033 | 1.971 ± 0.0074 | 1.966 ± 0.01 | 0.743 ± 0.075
47 | GGCGUG | 0.107 ± 0.021 | 1.91 ± 0.088 | 1.52 ± 0.022 | 0.291 ± 0.076
48 | AGCGUG | 0.152 ± 0.014 | 1.798 ± 0.014 | 1.37 ± 0.042 | 0.398 ± 0.032

Row | Variant | FACS-Seq fitted mean (log10) [1] | normalized RNA/DNA level with ligand (log10) [2] | normalized RNA/DNA level without ligand (log10) [3] | FACS-Seq fitted mean (log10) [4]
49 | AGCUAC | -0.583 ± 0.06 | 1.96 ± 0.058 | 1.778 ± 0.0088 | -0.175 ± 0.051
50 | CGCUAG | 0.118 ± 0.0022 | 1.89 ± 0.063 | 1.79 ± 0.051 | 0.183 ± 0.14
51 | UGCUAU | 0.535 ± 0.025 | 1.93 ± 0.023 | 1.88 ± 0.028 | 0.662 ± 0.05
52 | GGCUCA | 0.301 ± 0.011 | 1.98 ± 0.031 | 1.91 ± 0.074 | 0.297 ± 0.024
53 | UGCUCA | 0.419 ± 0.016 | 1.94 ± 0.0052 | 1.98 ± 0.061 | 0.498 ± 0.057
54 | AGCUCG | 0.177 ± 0.0048 | 1.931 ± 0.0082 | 1.63 ± 0.11 | 0.448 ± 0.0069
55 | CGCUGA | 0.643 ± 0.033 | 1.9529 ± 0.00012 | 1.89 ± 0.03 | 0.635 ± 0.0074
56 | UGCUGA | 0.117 ± 0.0063 | 1.92 ± 0.013 | 1.68 ± 0.021 | 0.0171 ± 0.11
57 | AGCUGA | 0.203 ± 0.08 | 1.91 ± 0.043 | 1.74 ± 0.067 | 0.0306 ± 0.017
58 | CGCUGC | 0.163 ± 0.06 | 1.98 ± 0.096 | 1.95 ± 0.083 | 0.518 ± 0.079
59 | AGCUGC | 0.448 ± 0.0077 | 2 ± 0.035 | 1.87 ± 0.076 | 0.755 ± 0.036
60 | AGCUGG | -0.403 ± 0.022 | 1.91 ± 0.069 | 1.57 ± 0.035 | -0.291 ± 0.096
61 | AGCUUC | -0.1877 ± 0.00023 | 2.019 ± 0.0075 | 1.927 ± 0.016 | -0.0634 ± 0.021
62 | AGCUUG | 0.486 ± 0.018 | 1.94 ± 0.036 | 1.59 ± 0.018 | 0.64 ± 0.031
63 | CGGAAA | 0.32 ± 0.016 | 1.87 ± 0.025 | 1.43 ± 0.051 | 0.587 ± 0.016
64 | GGGAAA | 0.227 ± 0.0031 | 1.867 ± 0.0029 | 1.57 ± 0.028 | 0.428 ± 0.03
65 | AGGAAA | 0.102 ± 0.031 | 1.87 ± 0.019 | 1.56 ± 0.037 | 0.42 ± 0.058
66 | AGGAAC | 0.573 ± 0.093 | 1.91 ± 0.042 | 1.66 ± 0.039 | 0.568 ± 0.099
67 | CGGAAG | 0.266 ± 0.007 | 1.905 ± 0.011 | 1.734 ± 0.0046 | 0.361 ± 0.062
68 | GGGAAG | -0.183 ± 0.0054 | 1.64 ± 0.023 | 1.18 ± 0.014 | 0.325 ± 0.0034
69 | AGGAAG | -0.0152 ± 0.00091 | 1.63 ± 0.038 | 1.11 ± 0.055 | 0.161 ± 0.026
70 | CGGAAU | 0.0719 ± 0.0065 | 1.81 ± 0.052 | 1.42 ± 0.016 | 0.548 ± 0.059
71 | GGGAAU | 0.489 ± 0.043 | 1.93 ± 0.045 | 1.64 ± 0.021 | 0.654 ± 0.069
